The record followed here is patent US5565425A, “Viral infection and proliferation inhibitors” (Snow Brand Milk Products Co., Ltd, priority 1993, dated 1996).

One experiment deals with HIV (HTLV-IIIB). Put plainly: Inhibitory activity against HIV infection and proliferation in MT-4 cells (indirect fluorescence antibody method). The class given is cell-based, human immunodeficiency virus (HIV). As to conditions: three days, positive control 26.0%. The protocol: (Method) Cultured supernatant of MOLT-4/HTLV-IIIB cells, a HTLV-IIIB persistent infected strain of HIV, was used as a viral solution. The supernatant was kept at -80° C. Human T cell line MT-4 was used for the test. MT-4 was subcultured in RPMI 1640 medium containing 10% fetal calf serum (FCS). Sample, LF derived peptide, was dissolved in RPMI 1640 medium and one ml of the diluted solution at various concentrations was added to the cells. The inoculated MT-4 test sample was incubated for 60 minutes and infected with HIV at a concentration of moi […]=0.01 and one ml of the cell solution adjusted at a cell density of 3×10^5 cells/ml was added. The cells were cultured for three days : and HIV infected cells were determined with an indirect fluorescence antibody method.
HIV infected cells were determined by the indirect fluorescence antibody method using HIV infected patient serum as a primary antibody. […] HIV infected MT-4 cells cultured without addition of the sample was used as a positive control and cells without addition of viral solution was cultured to make a negative control group.

In experiment [1] the test system is Human CMV (Tanaka strain). Put plainly: Inhibitory activity against human CMV infection and proliferation in HELF cells (fluorescence staining). As to conditions: 24 hrs., concentration not given. The class given is cell-based, Human cytomegalo virus. How it is done: (Method) LF derived peptide was dissolved in 2% serum added MEM medium to give five mg/ml solution, filtered and sterilized to make a stock solution. The stock solution was diluted with 2% serum added MEM medium on use. Samples containing human embryo lung fibroblast cells (HELF cells) were suspended in 2% serum added MEM medium and incubated for 10 minutes. The cells were collected by centrifugation, washed twice with 2% serum added MEM medium and suspended in 2% serum added MEM medium. Human cytomegalo virus [Human CMV (Tanaka strain)] was added, incubated for 24 hrs., fluorescence stained with human CMV positive serum and the adsorption rate of human CMV to the cells was determined.
The results are judged from the numbers of fluorescent stained cells per one cover slip.

Experiment [2] has as its system influenza virus A/PR/8/34. The note with it: 100 μl of one mg/ml solution in allantoic cavity three hours before virus; average of five eggs.

B1: Human LF: human lactoferrin, an iron-binding protein secreted in milk (protein, UniProt P02788 20-710, looked up)
Lactotransferrin: GRRRSVQWCAVSQPEATKCFQWQRNMRKVRGPPVSCIKRDSPIQCIQAIAENRADAVTLDGGFIYEAGLAPYKLRPVAAEVYGTERQPRTHYYAVAVVKKGGSFQLNELQGLKSCHTGLRRTAGWNVPIGTLRPFLNWTGPPEPIEAAVARFFSASCVPGADKGQFPNLCRLCAGTGENKCAFSSQEPYFSYSGAFKCLRDGAGDVAFIRESTVFEDLSDEAERDEYELLCPDNTRKPVDKFKDCHLARVPSHAVVARSVNGKEDAIWNLLRQAQEKFGKDKSPKFQLFGSPSGQKDLLFKDSAIGFSRVPPRIDSGLYLGSGYFTAIQNLRKSEEEVAARRARVVWCAVGEQELRKCNQWSGLSEGSVTCSSASTTEDCIALVLKGEADAMSLDGGYVYTAGKCGLVPVLAENYKSQQSSDPDPNCVDRPVEGYLAVAVVRRSDTSLTWNSVKGKKSCHTAVDRTAGWNIPMGLLFNQTGSCKFDEYFSQSCAPGSDPRSNLCALCIGDEQGENKCVPNSNERYYGYTGAFRCLAENAGDVAFVKDVTVLQNTDGNNNEAWAKDLKLADFALLCLDGKRKPVTEARSCHLAMAPNHAVVSRMDKVERLKQVLLHQQAKFGRNGSDCPDKFCLFQSETKNLLFNDNTECLARLHGKTTYEKYLGPQYVAGITNLKKCSTSPLLEACEFLRK
Take B1: the “ratio of stained (HIV infected) cells” value in the experiment with HIV (HTLV-IIIB) (sample 63 μg/ml) was found to be 17%; with HIV (HTLV-IIIB) (sample 125 μg/ml), 8.6%; with HIV (HTLV-IIIB) (sample 250 μg/ml), 7.3%; with HIV (HTLV-IIIB) (sample 500 μg/ml) it was 5.8%; in the experiment with HIV (HTLV-IIIB) (sample 1,000 μg/ml), 3.1%. In experiment [1], the “Inhibitory rate of human CMV infection” value came out at 94.8%. Besides, the “Inhibitory rate of infection and proliferation of influenza virus” value in experiment [2] is reported as 87.5%.
